# Measurements taken from patent US20180155406A1 (Sanofi, published 2018).
# Numbered stars: 1 amine (or outer) side, 2 acyl side, 3 side chain; on linkers, the order of the positions; unused ones are H or OH. Square brackets hold non-standard residues; d marks the D form. Side chains are listed from the residue outwards. Ends that are not written are not given here. * marks the point of attachment. γGlu = O=C(O)[C@H](CCC(=O)[*:2])N[*:1]; Stearoyl = CCCCCCCCCCCCCCCCCC(=O)*; Palmitoyl = CCCCCCCCCCCCCCCC(=O)*; Aib = CC(C)(N)C(=O)O
# T1: human GIP receptor (human, UniProt P48546 22-466)
# T1 sequence (looked up): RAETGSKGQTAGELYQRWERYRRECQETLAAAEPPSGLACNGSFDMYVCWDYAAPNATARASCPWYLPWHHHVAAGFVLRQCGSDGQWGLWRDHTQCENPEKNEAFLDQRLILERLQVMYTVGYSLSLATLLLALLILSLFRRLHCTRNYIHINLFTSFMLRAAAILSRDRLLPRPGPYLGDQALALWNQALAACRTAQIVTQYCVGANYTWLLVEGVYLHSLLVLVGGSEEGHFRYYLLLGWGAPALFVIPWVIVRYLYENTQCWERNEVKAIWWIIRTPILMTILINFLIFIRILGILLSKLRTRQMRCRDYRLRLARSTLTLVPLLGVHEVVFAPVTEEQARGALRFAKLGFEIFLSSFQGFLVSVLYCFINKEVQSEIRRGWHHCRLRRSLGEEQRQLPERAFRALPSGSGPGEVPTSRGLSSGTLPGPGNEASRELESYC
# B1: SEQ ID NO: 16 (peptide)
# peptide: H[Aib]HGTFTSDLSKLK([γGlu-Palmitoyl])EEQRQ[Aib]EFIEWLKA[dA]GPPS[Aib]KPPPK-NH2
# modifications: N-terminus assumed
# SMILES: CCCCCCCCCCCCCCCC(=O)N[C@@H](CCC(=O)NCCCC[C@H](NC(=O)[C@H](CC(C)C)NC(=O)[C@H](CCCCN)NC(=O)[C@H](CO)NC(=O)[C@H](CC(C)C)NC(=O)[C@H](CC(=O)O)NC(=O)[C@H](CO)NC(=O)[C@@H](NC(=O)[C@H](Cc1ccccc1)NC(=O)[C@@H](NC(=O)CNC(=O)[C@H](Cc1c[nH]cn1)NC(=O)C(C)(C)NC(=O)[C@@H](N)Cc1c[nH]cn1)[C@@H](C)O)[C@@H](C)O)C(=O)N[C@@H](CCC(=O)O)C(=O)N[C@@H](CCC(=O)O)C(=O)N[C@@H](CCC(N)=O)C(=O)N[C@@H](CCCNC(=N)N)C(=O)N[C@@H](CCC(N)=O)C(=O)NC(C)(C)C(=O)N[C@@H](CCC(=O)O)C(=O)N[C@@H](Cc1ccccc1)C(=O)N[C@H](C(=O)N[C@@H](CCC(=O)O)C(=O)N[C@@H](Cc1c[nH]c2ccccc12)C(=O)N[C@@H](CC(C)C)C(=O)N[C@@H](CCCCN)C(=O)N[C@@H](C)C(=O)N[C@H](C)C(=O)NCC(=O)N1CCC[C@H]1C(=O)N1CCC[C@H]1C(=O)N[C@@H](CO)C(=O)NC(C)(C)C(=O)N[C@@H](CCCCN)C(=O)N1CCC[C@H]1C(=O)N1CCC[C@H]1C(=O)N1CCC[C@H]1C(=O)N[C@@H](CCCCN)C(N)=O)[C@@H](C)CC)C(=O)O
# B2: SEQ ID NO: 17 (peptide)
# peptide: H[Aib]HGTFTSDLSKLK([γGlu-Stearoyl])EEQRQ[Aib]EFIEWLKA[dA]GPPS[Aib]KPPPK-NH2
# modifications: N-terminus assumed
# SMILES: CCCCCCCCCCCCCCCCCC(=O)N[C@@H](CCC(=O)NCCCC[C@H](NC(=O)[C@H](CC(C)C)NC(=O)[C@H](CCCCN)NC(=O)[C@H](CO)NC(=O)[C@H](CC(C)C)NC(=O)[C@H](CC(=O)O)NC(=O)[C@H](CO)NC(=O)[C@@H](NC(=O)[C@H](Cc1ccccc1)NC(=O)[C@@H](NC(=O)CNC(=O)[C@H](Cc1c[nH]cn1)NC(=O)C(C)(C)NC(=O)[C@@H](N)Cc1c[nH]cn1)[C@@H](C)O)[C@@H](C)O)C(=O)N[C@@H](CCC(=O)O)C(=O)N[C@@H](CCC(=O)O)C(=O)N[C@@H](CCC(N)=O)C(=O)N[C@@H](CCCNC(=N)N)C(=O)N[C@@H](CCC(N)=O)C(=O)NC(C)(C)C(=O)N[C@@H](CCC(=O)O)C(=O)N[C@@H](Cc1ccccc1)C(=O)N[C@H](C(=O)N[C@@H](CCC(=O)O)C(=O)N[C@@H](Cc1c[nH]c2ccccc12)C(=O)N[C@@H](CC(C)C)C(=O)N[C@@H](CCCCN)C(=O)N[C@@H](C)C(=O)N[C@H](C)C(=O)NCC(=O)N1CCC[C@H]1C(=O)N1CCC[C@H]1C(=O)N[C@@H](CO)C(=O)NC(C)(C)C(=O)N[C@@H](CCCCN)C(=O)N1CCC[C@H]1C(=O)N1CCC[C@H]1C(=O)N1CCC[C@H]1C(=O)N[C@@H](CCCCN)C(N)=O)[C@@H](C)CC)C(=O)O
# B3: SEQ ID NO: 18 (peptide)
# peptide: H[Aib]HGTFTSDLSKLK([γGlu-Palmitoyl])EEQRQ[Aib]EFIEWLKAGGPPS[Aib]KPPPK-NH2
# modifications: N-terminus assumed
# SMILES: CCCCCCCCCCCCCCCC(=O)N[C@@H](CCC(=O)NCCCC[C@H](NC(=O)[C@H](CC(C)C)NC(=O)[C@H](CCCCN)NC(=O)[C@H](CO)NC(=O)[C@H](CC(C)C)NC(=O)[C@H](CC(=O)O)NC(=O)[C@H](CO)NC(=O)[C@@H](NC(=O)[C@H](Cc1ccccc1)NC(=O)[C@@H](NC(=O)CNC(=O)[C@H](Cc1c[nH]cn1)NC(=O)C(C)(C)NC(=O)[C@@H](N)Cc1c[nH]cn1)[C@@H](C)O)[C@@H](C)O)C(=O)N[C@@H](CCC(=O)O)C(=O)N[C@@H](CCC(=O)O)C(=O)N[C@@H](CCC(N)=O)C(=O)N[C@@H](CCCNC(=N)N)C(=O)N[C@@H](CCC(N)=O)C(=O)NC(C)(C)C(=O)N[C@@H](CCC(=O)O)C(=O)N[C@@H](Cc1ccccc1)C(=O)N[C@H](C(=O)N[C@@H](CCC(=O)O)C(=O)N[C@@H](Cc1c[nH]c2ccccc12)C(=O)N[C@@H](CC(C)C)C(=O)N[C@@H](CCCCN)C(=O)N[C@@H](C)C(=O)NCC(=O)NCC(=O)N1CCC[C@H]1C(=O)N1CCC[C@H]1C(=O)N[C@@H](CO)C(=O)NC(C)(C)C(=O)N[C@@H](CCCCN)C(=O)N1CCC[C@H]1C(=O)N1CCC[C@H]1C(=O)N1CCC[C@H]1C(=O)N[C@@H](CCCCN)C(N)=O)[C@@H](C)CC)C(=O)O
# B4: SEQ ID NO: 19 (peptide)
# peptide: H[Aib]HGTFTSDLSKLK([γGlu-Stearoyl])EEQRQ[Aib]EFIEWLKAGGPPS[Aib]KPPPK-NH2
# modifications: N-terminus assumed
# SMILES: CCCCCCCCCCCCCCCCCC(=O)N[C@@H](CCC(=O)NCCCC[C@H](NC(=O)[C@H](CC(C)C)NC(=O)[C@H](CCCCN)NC(=O)[C@H](CO)NC(=O)[C@H](CC(C)C)NC(=O)[C@H](CC(=O)O)NC(=O)[C@H](CO)NC(=O)[C@@H](NC(=O)[C@H](Cc1ccccc1)NC(=O)[C@@H](NC(=O)CNC(=O)[C@H](Cc1c[nH]cn1)NC(=O)C(C)(C)NC(=O)[C@@H](N)Cc1c[nH]cn1)[C@@H](C)O)[C@@H](C)O)C(=O)N[C@@H](CCC(=O)O)C(=O)N[C@@H](CCC(=O)O)C(=O)N[C@@H](CCC(N)=O)C(=O)N[C@@H](CCCNC(=N)N)C(=O)N[C@@H](CCC(N)=O)C(=O)NC(C)(C)C(=O)N[C@@H](CCC(=O)O)C(=O)N[C@@H](Cc1ccccc1)C(=O)N[C@H](C(=O)N[C@@H](CCC(=O)O)C(=O)N[C@@H](Cc1c[nH]c2ccccc12)C(=O)N[C@@H](CC(C)C)C(=O)N[C@@H](CCCCN)C(=O)N[C@@H](C)C(=O)NCC(=O)NCC(=O)N1CCC[C@H]1C(=O)N1CCC[C@H]1C(=O)N[C@@H](CO)C(=O)NC(C)(C)C(=O)N[C@@H](CCCCN)C(=O)N1CCC[C@H]1C(=O)N1CCC[C@H]1C(=O)N1CCC[C@H]1C(=O)N[C@@H](CCCCN)C(N)=O)[C@@H](C)CC)C(=O)O
# Molecular target: human GLP-1 receptor (human, UniProt P43220 24-463)
# Assay: cell-based or functional assay
row,Binder,EC50 hGLP-1R (cAMP formation) [pM]
1,B1,7.1
2,B2,6.4
3,B3,5.3
4,B4,6.1

# Molecular target: human glucagon receptor (human, UniProt P47871 26-477)
# Assay: cell-based or functional assay
# human glucagon receptor, sequence (P47871 26-477): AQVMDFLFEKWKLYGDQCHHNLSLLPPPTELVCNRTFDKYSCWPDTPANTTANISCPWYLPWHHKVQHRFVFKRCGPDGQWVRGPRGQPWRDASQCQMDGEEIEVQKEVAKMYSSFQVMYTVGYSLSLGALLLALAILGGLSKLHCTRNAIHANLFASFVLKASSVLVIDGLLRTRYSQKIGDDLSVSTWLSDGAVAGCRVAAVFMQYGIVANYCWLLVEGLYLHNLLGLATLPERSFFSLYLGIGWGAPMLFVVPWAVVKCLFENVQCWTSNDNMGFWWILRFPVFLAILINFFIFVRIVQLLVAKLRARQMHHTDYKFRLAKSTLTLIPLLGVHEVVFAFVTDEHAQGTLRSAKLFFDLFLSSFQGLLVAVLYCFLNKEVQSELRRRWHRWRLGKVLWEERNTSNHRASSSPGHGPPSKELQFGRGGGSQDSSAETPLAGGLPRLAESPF
row,Binder,EC50 hGlucagon R (cAMP formation) [pM]
1,B1,4.3
2,B2,5.3
3,B3,2.8
4,B4,3.1

# Molecular target: T1, human GIP receptor
# Assay: cell-based or functional assay
row,Binder,EC50 hGIP R (cAMP formation) [pM]
1,B1,3.7
2,B2,7.3
3,B3,2
4,B4,4
